{"source": "paper PMC7353701", "about": "“Molecular characterization and heterologous expression of two α-glucosidases from Metschnikowia spp, both producers of honey sugars” (Microbial Cell Factories, 2020)", "key": {"[1]": {"substrate": "OC[C@H]1O[C@@](CO)(O[C@H]2O[C@H](CO)[C@@H](O)[C@H](O)[C@H]2O)[C@@H](O)[C@@H]1O", "assay": "initial rates, Michaelis-Menten fit", "format": "biochemical, Metschnikowia gruessii", "details": "0-225 mM sucrose, standard assay 50 mM sodium phosphate pH 7.0, 30 °C"}, "[2]": {"substrate": "OC[C@H]1O[C@@](CO)(O[C@H]2O[C@H](CO)[C@@H](O)[C@H](O)[C@H]2O)[C@@H](O)[C@@H]1O", "assay": "initial rates, Michaelis-Menten fit", "format": "biochemical, Metschnikowia reukaufii", "details": "0-225 mM sucrose, standard assay 50 mM sodium phosphate pH 7.0, 30 °C"}}, "data": [{"protein": "Mg-αGlu (Metschnikowia gruessii) (protein) MTDAIWWKDASVYQIWPASYKDSNGDGFGDIPGVISTLDYIKNLGVDVIWLSPMYDSPQDDMGYDVADYENVYPKYGTLEDMDTLISEVHARGMKLILDLVINHTSTAHKWFEESKSDKENPKRDWYIWKPARYDEDGNRHPPNNWQSYFSGSAWEYDENTDEYYLHLFAKSQPDLNWENDETRQAIYDSALTFWFEKGVDGFRIDTAGMYSKVQTFEDAPIVFPDLEWQPCTDFHQSGPRIHEFHKEMFEKVTSKYDAMTVGEVGHSSREDALKYVSAQEKEMNMMFLFDLVEVGSNPSDRFRYDGFKLTDFKQAVSNMSSFSEGTDAWSTCFFENHDQPRCITRFGNDSPEYLFRSGKMLATLLTSLTGTLFIYQGQEFGMTNVPLEWNIDEYKDINTVNYYQLYVEKNGEENVGELIKNINLVARDNARTPVQWDGTENGGFSTGQPWMRVNDNYQQVNAASQVNDPESLYNFYKKALEVRKEHKDVLIYGSLEIIDFDDERVFSFYKKSGDKTAYVVLNFTKDPIDFKPAVESELELVLTNEREIRDDVLSPYESRLYIVKN", "values": [{"measurement": "Km", "setting": "[1]", "value": "54.1 ± 5.8", "unit": "mM"}, {"measurement": "kcat", "setting": "[1]", "value": "270 ± 10.9", "unit": "s⁻¹"}, {"measurement": "kcat/Km", "setting": "[1]", "value": "4900 ± 700", "unit": "M⁻¹ s⁻¹"}]}, {"protein": "Mr-αGlu (Metschnikowia reukaufii) (protein) MTDAIWWKDASVYQIWPASYKDSNGDGFGDIPGVISTLDYIKNLGVDVIWLSPMYDSPQDDMGYDVADYENVYPKYGTLEDMDTLISEVHARGMKLILDLVINHTSTAHKWFEESKSDKENPKRDWYIWKPARYDEDGNRHPPNNWQSYFSGSAWEYDENTDEYYLHLFAKSQPDLNWENDETRQAIYDSALTFWFEKGVDGFRIDTAGMYSKVQTFEDAPIVFPDLEWQPCADFHQSGPRIHEFHKEMFEKVTSKYDAMTVGEVGHSSREDALKYVSAQEKEMNMMFLFDLVEVGSNPKDRFIYDGFKLTDFKQAVANMSSFSEGTDAWSTCFFENHDQPRCITRFGNDSPEYLFRSGKMLATLLTSLTGTLFIYQGQEFGMTNVPLEWNIDEYKDINTVNYYQLYVEKNGEENVGELIKNINLVARDNARTPVQWDGTENGGFSTGQPWMRVNDNYQQVNAASQVNDPESLYNFYKKALEVRKEHKDVLIYGSLEIIDFDDERVFSFYKKSGDKTAYVVLNFTKDPIDFKPAVESELELVLTNEREIRDDVLSPYESRLYIVKN", "values": [{"measurement": "Km", "setting": "[2]", "value": "64.9 ± 4.6", "unit": "mM"}, {"measurement": "kcat", "setting": "[2]", "value": "477 ± 13.7", "unit": "s⁻¹"}, {"measurement": "kcat/Km", "setting": "[2]", "value": "7400 ± 700", "unit": "M⁻¹ s⁻¹"}]}]}
